Data on two substances can be found in patent publication US20260234269A1.

The target in assay [1] is human Gal9 protein (R&D systems) (human) (UniProt O00182). The assay can be described thus: ELISA, hGal9 coated, mTIM-3 Fc with or without 25 mM lactose. For orientation: ELISA stands for enzyme-linked immunosorbent assay.
The target in assay [2] is mouse Gal3 on mouse cells (B16F10 tumor cells, RAW264.7 macrophages) (mouse) (UniProt P16110). The assay can be described thus: flow cytometry, B16F10 cells. In general terms: Flow cytometry measures light scatter and fluorescence of single cells or particles in a stream.
Chain of mouse Gal3 on mouse cells (B16F10 tumor cells, RAW264.7 macrophages) (mouse) (P16110 2-264): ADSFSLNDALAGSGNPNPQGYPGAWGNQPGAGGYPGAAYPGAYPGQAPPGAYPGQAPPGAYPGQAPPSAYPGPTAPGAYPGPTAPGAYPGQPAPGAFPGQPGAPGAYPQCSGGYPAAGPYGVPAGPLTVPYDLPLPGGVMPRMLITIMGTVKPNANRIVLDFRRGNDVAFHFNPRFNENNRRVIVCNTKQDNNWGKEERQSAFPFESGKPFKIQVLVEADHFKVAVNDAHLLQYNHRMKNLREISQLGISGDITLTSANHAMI

Chain of human Gal9 protein (R&D systems) (human) (O00182 other isoform, or with tags, fused parts or gaps limits assumed): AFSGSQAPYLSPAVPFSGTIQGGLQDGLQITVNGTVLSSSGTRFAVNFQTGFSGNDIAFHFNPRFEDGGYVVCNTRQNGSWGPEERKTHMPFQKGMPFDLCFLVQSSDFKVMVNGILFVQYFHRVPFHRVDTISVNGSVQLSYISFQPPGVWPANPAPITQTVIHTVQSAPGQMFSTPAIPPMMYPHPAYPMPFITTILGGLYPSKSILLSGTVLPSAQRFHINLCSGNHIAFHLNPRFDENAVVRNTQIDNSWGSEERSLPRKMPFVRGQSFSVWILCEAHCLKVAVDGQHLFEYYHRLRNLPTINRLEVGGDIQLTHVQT

With “mouse TIM-3 Fc protein (R&D systems) (from UniProt Q8VIM0 20-191) (Fc fusion)”, the fold reduction in signal with 25 mM lactose in assay [1] is more than 10 fold.

On to “rat anti mouse Gal3 PE antibody (Thermo Fisher Scientific)”, for which the MFI, fold over isotype control antibody in assay [2] came out at 10 fold.
